Results published in the supplement of paper PMC10567573.

B1: ZER1 (parent)
chain: PILRLLPQGISPVSQHWATWALYN

Variants of: B1
Test: protein stability index of a GFP-peptide fusion (GPS, HEK-293T) (PSI 1-6); higher = more stable
Settings: c terminus: a fixed tail appended
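Note: lentivirally expressed fusions sorted by FACS into six bins by GFP to DsRed ratio, PSI derived from sequencing read proportions per bin multiplied by bin number.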

First: PILRLLPQGISPVSQHLATWALYN
Second: PILRLLPQGISPVSQHMATWALYN
The protein stability index of the first is higher: 4.01 for the first, 3.18 for the second.

Compared with PILRLLPQGISPVSQHNATWALYN, PILRLLPQGISPVSQHPATWALYN is lower in protein stability index: 1.83 for the first, 1.4 for the second.

First: PILRLLPQGISPVSQHQATWALYN
Second: PILRLLPQGISPVSQHRATWALYN
The protein stability index of the first is higher: 3.2 for the first, 3.1 for the second.

Going from PILRLLPQGISPVSQHSATWALYN to PILRLLPQGISPVSQHTATWALYN, the protein stability index falls from 2.51 to 1.73.

First: PILRLLPQGISPVSQHVATWALYN
Second: PILRLLPQGISPVSQHYATWALYN
The protein stability index of the first is higher: 2.59 for the first, 2.15 for the second.

Going from PILRLLPQGISPVSQHWCTWALYN to PILRLLPQGISPVSQHWETWALYN, the protein stability index rises from 1.74 to 2.82.

Going from PILRLLPQGISPVSQHWGTWALYN to PILRLLPQGISPVSQHWHTWALYN, the protein stability index rises from 2.24 to 2.94.

Going from PILRLLPQGISPVSQHWITWALYN to PILRLLPQGISPVSQHWKTWALYN, the protein stability index rises from 1.83 to 2.89.

First: PILRLLPQGISPVSQHWLTWALYN
Second: PILRLLPQGISPVSQHWMTWALYN
The protein stability index of the first is lower: 2.27 for the first, 2.28 for the second.

First: PILRLLPQGISPVSQHWNTWALYN
Second: PILRLLPQGISPVSQHWRTWALYN
The protein stability index of the first is higher: 3.82 for the first, 2.58 for the second.

Going from PILRLLPQGISPVSQHWTTWALYN to PILRLLPQGISPVSQHWYTWALYN, the protein stability index rises from 3.18 to 4.06.

Compared with PILRLLPQGISPVSQHWAAWALYN, PILRLLPQGISPVSQHWADWALYN is lower in protein stability index: 2.69 for the first, 2.33 for the second.

Going from PILRLLPQGISPVSQHWAGWALYN to PILRLLPQGISPVSQHWAKWALYN, the protein stability index rises from 1.97 to 2.3.

First: PILRLLPQGISPVSQHWAPWALYN
Second: PILRLLPQGISPVSQHWATAALYN
The protein stability index of the first is lower: 2.12 for the first, 2.62 for the second.

Compared with PILRLLPQGISPVSQHWATCALYN, PILRLLPQGISPVSQHWATDALYN is lower in protein stability index: 3.55 for the first, 2.6 for the second.

First: PILRLLPQGISPVSQHWATEALYN
Second: PILRLLPQGISPVSQHWATFALYN
The protein stability index of the first is lower: 1.58 for the first, 3.5 for the second.

Going from PILRLLPQGISPVSQHWATGALYN to PILRLLPQGISPVSQHWATHALYN, the protein stability index rises from 1.37 to 2.61.

First: PILRLLPQGISPVSQHWATIALYN
Second: PILRLLPQGISPVSQHWATKALYN
The protein stability index of the first is higher: 4.55 for the first, 1.28 for the second.

Going from PILRLLPQGISPVSQHWATMALYN to PILRLLPQGISPVSQHWATNALYN, the protein stability index falls from 3.46 to 2.09.

Compared with PILRLLPQGISPVSQHWATPALYN, PILRLLPQGISPVSQHWATQALYN is lower in protein stability index: 2.79 for the first, 1.47 for the second.

Going from PILRLLPQGISPVSQHWATRALYN to PILRLLPQGISPVSQHWATSALYN, the protein stability index rises from 1.64 to 2.41.

First: PILRLLPQGISPVSQHWATTALYN
Second: PILRLLPQGISPVSQHWATYALYN
The protein stability index of the first is higher: 3.72 for the first, 2.5 for the second.

First: PILRLLPQGISPVSQHWATWCLYN
Second: PILRLLPQGISPVSQHWATWDLYN
The protein stability index of the first is lower: 2.69 for the first, 2.79 for the second.

Going from PILRLLPQGISPVSQHWATWELYN to PILRLLPQGISPVSQHWATWFLYN, the protein stability index rises from 2.6 to 2.7.

Going from PILRLLPQGISPVSQHWATWILYN to PILRLLPQGISPVSQHWATWKLYN, the protein stability index falls from 3.15 to 2.07.

Compared with PILRLLPQGISPVSQHWATWLLYN, PILRLLPQGISPVSQHWATWMLYN is higher in protein stability index: 2.38 for the first, 3.29 for the second.

First: PILRLLPQGISPVSQHWATWNLYN
Second: PILRLLPQGISPVSQHWATWPLYN
The protein stability index of the first is lower: 1.76 for the first, 2.65 for the second.

Going from PILRLLPQGISPVSQHWATWQLYN to PILRLLPQGISPVSQHWATWRLYN, the protein stability index falls from 3.72 to 1.

Going from PILRLLPQGISPVSQHWATWSLYN to PILRLLPQGISPVSQHWATWTLYN, the protein stability index falls from 2.6 to 2.57.

Going from PILRLLPQGISPVSQHWATWVLYN to PILRLLPQGISPVSQHWATWWLYN, the protein stability index falls from 3.96 to 2.29.

Going from PILRLLPQGISPVSQHWATWYLYN to PILRLLPQGISPVSQHWATWAAYN, the protein stability index falls from 4.95 to 3.32.

Compared with PILRLLPQGISPVSQHWATWADYN, PILRLLPQGISPVSQHWATWAEYN is lower in protein stability index: 2.02 for the first, 1.58 for the second.

Compared with PILRLLPQGISPVSQHWATWAGYN, PILRLLPQGISPVSQHWATWAHYN is lower in protein stability index: 2.3 for the first, 1.58 for the second.

Going from PILRLLPQGISPVSQHWATWAKYN to PILRLLPQGISPVSQHWATWANYN, the protein stability index rises from 1.52 to 1.88.

First: PILRLLPQGISPVSQHWATWAPYN
Second: PILRLLPQGISPVSQHWATWAQYN
The protein stability index of the first is lower: 1.57 for the first, 3.18 for the second.

First: PILRLLPQGISPVSQHWATWARYN
Second: PILRLLPQGISPVSQHWATWASYN
The protein stability index of the first is higher: 3.48 for the first, 1.71 for the second.

Going from PILRLLPQGISPVSQHWATWAWYN to PILRLLPQGISPVSQHWATWAYYN, the protein stability index falls from 4.02 to 2.83.

First: PILRLLPQGISPVSQHWATWALDN
Second: PILRLLPQGISPVSQHWATWALEN
The protein stability index of the first is higher: 2 for the first, 1.8 for the second.

First: PILRLLPQGISPVSQHWATWALGN
Second: PILRLLPQGISPVSQHWATWALHN
The protein stability index of the first is lower: 2.11 for the first, 3.01 for the second.

Going from PILRLLPQGISPVSQHWATWALIN to PILRLLPQGISPVSQHWATWALKN, the protein stability index falls from 3.22 to 1.92.

First: PILRLLPQGISPVSQHWATWALNN
Second: PILRLLPQGISPVSQHWATWALPN
The protein stability index of the first is higher: 2.92 for the first, 1.54 for the second.

First: PILRLLPQGISPVSQHWATWALRN
Second: PILRLLPQGISPVSQHWATWALSN
The protein stability index of the first is lower: 1.17 for the first, 1.66 for the second.

Going from PILRLLPQGISPVSQHWATWALVN to PILRLLPQGISPVSQHWATWALWN, the protein stability index rises from 3.73 to 4.62.

First: PILRLLPQGISPVSQHWATWALYA
Second: PILRLLPQGISPVSQHWATWALYD
The protein stability index of the first is lower: 2.09 for the first, 3.49 for the second.

First: PILRLLPQGISPVSQHWATWALYH
Second: PILRLLPQGISPVSQHWATWALYI
The protein stability index of the first is lower: 2.93 for the first, 3.12 for the second.

First: PILRLLPQGISPVSQHWATWALYL
Second: PILRLLPQGISPVSQHWATWALYM
The protein stability index of the first is higher: 4.12 for the first, 3.8 for the second.

Going from PILRLLPQGISPVSQHWATWALYP to PILRLLPQGISPVSQHWATWALYQ, the protein stability index falls from 3.08 to 2.31.
